Results on 1 molecule are retold here after patent USRE49280 (University of Texas, dated 2022).

The assay has as its target T1, TGF-β2 K25R I92V K94R (UniProt P61812 303-414, K25R; I92V; K94R).
T1 construct: mature; Immobilised on the SPR sensor surface
T1 sequence (looked up): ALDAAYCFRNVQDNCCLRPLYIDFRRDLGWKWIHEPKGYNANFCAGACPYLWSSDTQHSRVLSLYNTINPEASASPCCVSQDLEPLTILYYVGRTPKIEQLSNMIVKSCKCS
Kind of assay: SPR, receptor injected over immobilised TGF-β2 K25R I92V K94R.

B1: TGF-β type III receptor endoglin-like domain (receptor)
chain: GPEPSTRCELSPINASHPVQALMESFTVLSGCASRGTTGLPREVHVLNLRSTDQGPGQRQREVTLHLNPIASVHTHHKPIVFLLNSPQPLVWHLKTERLAAGVPRLFLVSEGSVVQFPSGNFSLTAETEERNFPQENEHLLRWAQKEYGAVTSFTELKIARNIYIKVGEDQVFPPTCNIGKNFLSLNYLAEYLQPKAAEGCVLPSQPHEKEVHIIELITPSSNPYSAFQVDIIVDIRPAQEDPEVVKNLVLILKCKKSVNWVIKSFDVKGNLKVIAPNSIGFGKESERSMTMTKLVRDDIPSTQENLMKWALDNGYRPVTSYTMAPVANRFHLRLENNEEMRDEEVHTIPPELRILLDPD
notes: also called TβRIIIE; BGE
Turning to B1, the “maximal mass-normalized response relative to that for TβRII” value is ~0.5 fold of TβRII.
